{"source": "patent US20090208538A1", "about": "(ROCKEFELLER UNIVERSITY, published 2009)", "molecular_target": "HLA-A2.1/cdr2(290-298) complex (human)", "test": "cell-based or functional assay", "data": [{"binder": "cdr2-specific murine T cell receptor of CTL clones 11 and 12 (TCR, V domains shown) V domain 1: QQQVRQSPQSLTVWEGGTTVLTCSYEDSTFNYFPWYQQFPGEGPALLISILSVSDKKEDGRFTTFFNKREKKLSLHIIDSQPGDSATYFCAASGASGGSNAKLTFGKGTKLSVKS V domain 2: DSGVVQSPRHIIKEKGGRSVLTCIPISGHSNVVWYQQTLGKELKFLIQHYEKVERDKGFLPSRFSVQQFDDYHSEMNMSALELEDSAMYFCASSLGGWAEQFFGPGTRLTVLE", "values": [{"measurement": "IFN-γ release, ELISA", "result": 20, "unit": "fold above background"}]}]}
